Measurements taken from paper PMC6603201.

Legend:
Assay in all cases: SPR; CBP-FLAG immobilised by amine coupling on a CM5 chip (300-400 RU, 10 mM sodium acetate pH 4.5); serial dilutions of mouse chemokine flowed in triplicate for 3 min, 10 min dissociation; 25°C; HBS-EP buffer (20 mM HEPES, 150 mM NaCl, 3.4 mM EDTA, 0.005% Polysorbate 20, pH 7.4); Biacore X100; global fit with a 1:1 binding model
[1] = target: PVNZ112.6-CBP (Parapoxvirus of red deer in New Zealand (PVNZ), strain RD86)
[2] = target: PVNZ112.3-CBP (Parapoxvirus of red deer in New Zealand (PVNZ), strain RD86)
[3] = target: PVNZ112.0-CBP (Parapoxvirus of red deer in New Zealand (PVNZ), strain RD86)

recombinant mouse CCL2 (from UniProt P10148 24-148) (ligand)
Kd [1]: 0.03 nM | koff [1]: 0.00037 s⁻¹ | kon [1]: 1.18e+07 M⁻¹ s⁻¹

recombinant mouse CCL21 (from UniProt P84444 24-133) (ligand)
Kd [2]: 17.9 nM | koff [2]: 0.00251 s⁻¹ | kon [2]: 140000 M⁻¹ s⁻¹ | Kd [3]: 12.9 nM | koff [3]: 0.00682 s⁻¹ | kon [3]: 530000 M⁻¹ s⁻¹ | Kd [1]: 0.52 nM | koff [1]: 0.0103 s⁻¹ | kon [1]: 1.95e+07 M⁻¹ s⁻¹

B1: recombinant mouse XCL1 (ligand)
chain: VGTEVLEESSCVNLQTQRLPVQKIKTYIIWEGAMRAVIFVTKRGLKICADPEAKWVKAAIKTVDGRASTRKNMAETVPTGAQRSTSTAITLTG
Kd [3]: 30.8 nM | koff [3]: 0.00203 s⁻¹ | kon [3]: 60000 M⁻¹ s⁻¹

B2: recombinant mouse CXCL2 (ligand)
chain: AVVASELRCQCLKTLPRVDFKNIQSLSVTPPGPHCAQTEVIATLKGGQKVCLDPEAPLVQKIIQKILNKGKAN
Kd [2]: 0.48 nM | koff [2]: 0.00087 s⁻¹ | kon [2]: 1.79e+06 M⁻¹ s⁻¹

B3: recombinant mouse CXCL10 (ligand)
chain: IPLARTVRCNCIHIDDGPVRMRAIGKLEIIPASLSCPRVEIIATMKKNDEQRCLNPESKTIKNLMKAFSQKRSKRAP
Kd [2]: 82.5 nM | koff [2]: 0.0198 s⁻¹ | kon [2]: 240000 M⁻¹ s⁻¹ | Kd [3]: 7.29 nM | koff [3]: 0.00708 s⁻¹ | kon [3]: 970000 M⁻¹ s⁻¹ | Kd [1]: 10.4 nM | koff [1]: 0.00146 s⁻¹ | kon [1]: 140000 M⁻¹ s⁻¹

B4: recombinant mouse CXCL1 (ligand)
chain: APIANELRCQCLQTMAGIHLKNIQSLKVLPSGPHCTQTEVIATLKNGREACLDPEAPLVQKIVQKMLKGVPK
Kd [2]: 0.66 nM | koff [2]: 0.00169 s⁻¹ | kon [2]: 2.54e+06 M⁻¹ s⁻¹

B5: recombinant mouse CCL3 (ligand)
chain: APYGADTPTACCFSYSRKIPRQFIVDYFETSSLCSQPGVIFLTKRNRQICADSKETWVQEYITDLELNA
Kd [1]: 2.51 nM | koff [1]: 0.0358 s⁻¹ | kon [1]: 1.42e+07 M⁻¹ s⁻¹

B6: recombinant mouse CXCL4 (ligand)
chain: VTSAGPEESDGDLSCVCVKTISSGIHLKHITSLEVIKAGRHCAVPQLIATLKNGRKICLDRQAPLYKKVIKKILES
Kd [2]: 0.97 nM | koff [2]: 0.00126 s⁻¹ | kon [2]: 1.29e+06 M⁻¹ s⁻¹ | Kd [3]: 25.9 nM | koff [3]: 0.0044 s⁻¹ | kon [3]: 170000 M⁻¹ s⁻¹ | Kd [1]: 0.59 nM | koff [1]: 0.011 s⁻¹ | kon [1]: 1.85e+07 M⁻¹ s⁻¹

B7: recombinant mouse CCL19 (ligand)
chain: GANDAEDCCLSVTQRPIPGNIVKAFRYLLNEDGCRVPAVVFTTLRGYQLCAPPDQPWVDRIIRRLKKSSAKNKGNSTRRSPVS
Kd [2]: 15.8 nM | koff [2]: 0.00158 s⁻¹ | kon [2]: 10000 M⁻¹ s⁻¹ | Kd [1]: 0.13 nM | koff [1]: 0.00132 s⁻¹ | kon [1]: 1e+07 M⁻¹ s⁻¹

B8: recombinant mouse CCL22 (ligand)
chain: GPYGANVEDSICCQDYIRHPLPSRLVKEFFWTSKSCRKPGVVLITVKNRDICADPRQVWVKKLLHKLS
Kd [1]: 0.02 nM | koff [1]: 0.00047 s⁻¹ | kon [1]: 2.17e+07 M⁻¹ s⁻¹
